From patent publication US20040142894, “Modulation of cellular proliferation” (published 2004) come the findings set out here.

The data set has as its target T1, HiNF-P (enriched chromatographic fraction, HeLa) (Homo sapiens, UniProt Q9BQA5 Q9BQA5:1-517).
T1 sequence: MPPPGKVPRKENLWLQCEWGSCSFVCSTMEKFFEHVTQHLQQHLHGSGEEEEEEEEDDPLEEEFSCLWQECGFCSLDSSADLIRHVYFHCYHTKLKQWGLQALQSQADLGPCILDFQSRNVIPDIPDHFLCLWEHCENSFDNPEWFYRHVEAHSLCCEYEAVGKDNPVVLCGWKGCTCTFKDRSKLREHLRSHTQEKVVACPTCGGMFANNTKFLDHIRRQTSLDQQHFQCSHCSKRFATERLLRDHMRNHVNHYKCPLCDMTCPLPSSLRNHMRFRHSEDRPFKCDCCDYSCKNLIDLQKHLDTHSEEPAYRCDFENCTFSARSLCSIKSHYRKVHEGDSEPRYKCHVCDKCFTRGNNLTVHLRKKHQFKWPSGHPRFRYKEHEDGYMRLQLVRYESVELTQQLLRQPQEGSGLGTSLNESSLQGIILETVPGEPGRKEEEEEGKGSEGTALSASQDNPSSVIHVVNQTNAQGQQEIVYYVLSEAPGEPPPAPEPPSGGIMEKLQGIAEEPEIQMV
Put plainly: UV cross-linking, 65 kDa; 100 uM Zn2+ and Mg2+. To be noted: label: 32P-dCTP. Here is the method: FIG. 6B is a representation of an autoradiogram showing UV cross-linking of HiNF-P/Site II complexes. Oligonucleotides spanning wild type (WT) and mutant (Pmut) Site II sequences were labeled with BrdUTP and ³²P-dCTP then incubated with a fraction (7.5 μl; 0.4M KCl) containing enriched HiNF-P binding activity. The reaction mixture was exposed to UV light (305 nm) for 60 minutes and then digested with DNase I and MNase. Cross-linked, labeled proteins were analyzed using 10% SDS-PAGE and subjected to autoradiography. Molecular weight makers are shown at the left. The arrow indicates the 65 kDa HiNF-P-DNA complex.
Ultraviolet cross-linking experiments were performed by adapting a method described in Ausubel, F. M. et al. (Current Protocols in Molecular Biology. Greene and Wiley, New York, 1989). A radiolabeled and BrdU-substituted probe was prepared by incubating 20 pmol of partially double-stranded HiNF-P-specific oligonucleotide (top strand: 5′-CGC TTT CGG-3′, SEQ ID NO:13; Bottom strand: 5′-CAAGAGTATCGGACCAGATTGAAAACCGAAAGCG-3′, SEQ ID NO:14) with 1 μl of 50× dNTP/BrdUTP solution (containing 50 μM DATP, 50 μM dGTP, 37.5 μM dTTP and 12.5 μM BrdUTP), 150 μCi α-³²P-dCTP and 1 μl of a solution containing 5 mM DTT and 1 μg/μl BSA, in a total reaction volume of 25 μl. […] Following nuclease digestion, the products were analyzed by 10% SDS-PAGE.

B1: BrdU-substituted Site II probe (dsDNA)
DNA 1: CAAGAGTATCGGACCAGATTGAAAACCGAAAGCG
DNA 2: CGCTTTCGGTTTTCAATCTGGTCCGATACTCTTG
modifications: partial BrdU substitution for T in filled-in strand
Consider B1, for which the binding result is listed as “binds”.
